Experimental findings from patent US20250011363A1, “OPTIMIZED SHORTENED PEPTIDE THAT BINDS TO ACETYLCHOLINE RECEPTOR, AND USE THEREOF” (SKINMED CO., LTD., priority 2021, published 2025) are described below.

In experiment [1] the target is acetylcholine receptor. Nature of the experiment: SPR, receptor immobilised on chip, peptide at 10 µM.
In experiment [2] the target is acetylcholine receptor. The experiment can be described thus: SPR, acetylcholine receptor on CM5 chip, peptide at 10 uM.

Turning to KGLLRR [6mer-2-494], the Binding affinity in experiment [1] turned out to be 144 RU.

Take KGQTRR [6mer-2-482]: the Binding affinity in experiment [1] was 154 RU.

Consider KRVICR [6mer-1-544], for which the Binding affinity (RU) in experiment [2] is 149 RU.

For the molecule RVFLKK [6mer-2-508], the Binding affinity in experiment [1] was found to be 121 RU.

In experiment [2], RKVQQR [6mer-1-547] had a Binding affinity (RU) of 148 RU.

In experiment [2], RRVILK [6mer-1-535] came in with a Binding affinity (RU) of 139 RU.

For the molecule KRVLKK [6mer-2-510], the Binding affinity in experiment [1] was 146 RU.

In experiment [1], KSYTKR [6mer-2-487] registered a Binding affinity of 121 RU.

As for KQYTRK [6mer-2-521], the Binding affinity in experiment [1] was found to be 144 RU.

On to RGLTRK [6mer-2-504], for which, in experiment [1], the Binding affinity is 154 RU.

For KGLQKK [6mer-2-514], the Binding affinity in experiment [1] is 124 RU.

In experiment [2], KRWFRR [6mer-1-542] returned a Binding affinity (RU) of 128 RU.

As to KSYCKR [6mer-2-520], the Binding affinity in experiment [1] worked out at 144 RU.

Molecule KQQSKK [6mer-2-486] registered a Binding affinity in experiment [1] of 121 RU.

In experiment [2], KRVQTR [6mer-1-540] yielded a Binding affinity (RU) of 128 RU.

As to RRYLKK [6mer-2-483], in experiment [1], the Binding affinity is 121 RU.

For RKLVQR [6mer-1-546], the Binding affinity (RU) in experiment [2] was 123 RU.

In experiment [1], KLLCKK [6mer-2-495] registered a Binding affinity of 121 RU.

The molecule RRYQKK [6mer-2-490] registered a Binding affinity in experiment [1] of 145 RU.

In experiment [1], KGFRKK [6mer-2-528] gave a Binding affinity of 151 RU.

Regarding RVFCRR [6mer-2-511], the Binding affinity in experiment [1] came out at 126 RU.

RRLICR [6mer-1-550] gave a Binding affinity (RU) in experiment [2] of 148 RU.

As to RWFTRR [6mer-2-512], in experiment [1], the Binding affinity is 148 RU.

KRLLKR [6mer-2-533] displayed a Binding affinity in experiment [1] of 142 RU.

Turning to RGIQKR [6mer-2-524], the Binding affinity in experiment [1] stood at 128 RU.

As to RRSYRK [6mer-1-545], the Binding affinity (RU) in experiment [2] turned out to be 127 RU.

For the molecule RQRYKK [6mer-2-481], the Binding affinity in experiment [1] is 131 RU.

KLVTKK [6mer-2-518] displayed a Binding affinity in experiment [1] of 151 RU.

In the case of KRGIRK [6mer-1-539], the Binding affinity (RU) in experiment [2] came out at 148 RU.

In the case of KVQTKK [6mer-2-503], the Binding affinity in experiment [1] was 154 RU.

In experiment [1], RVQLRR [6mer-2-534] had a Binding affinity of 139 RU.

With RLFTKR [6mer-2-499], the Binding affinity in experiment [1] is 145 RU.

As for RGRYKR [6mer-2-523], the Binding affinity in experiment [1] turned out to be 146 RU.

Consider KKSYQR [6mer-1-549], for which the Binding affinity (RU) in experiment [2] came to 142 RU.

As to RGQTRR [6mer-2-527], the Binding affinity in experiment [1] stood at 145 RU.

KVYRRK [6mer-2-488] yielded a Binding affinity in experiment [1] of 146 RU.

Regarding RRVYSR [6mer-1-548], in experiment [2], the Binding affinity (RU) stood at 123 RU.

For RWYCRK [6mer-2-515], in experiment [1], the Binding affinity amounted to 123 RU.

The molecule RRLTRK [6mer-2-513] had a Binding affinity in experiment [1] of 121 RU.

With RGICKR [6mer-2-507], the Binding affinity in experiment [1] is 145 RU.

As to RKWFTR [6mer-1-541], the Binding affinity (RU) in experiment [2] came out at 136 RU.

Molecule KSLLKK [6mer-2-506] returned a Binding affinity in experiment [1] of 135 RU.

As for KLRTKK [6mer-2-517], the Binding affinity in experiment [1] amounted to 153 RU.

In turn, RQIQKR [6mer-2-485] gave a Binding affinity in experiment [1] of 148 RU.

In turn, KSITKR [6mer-2-532] registered a Binding affinity in experiment [1] of 147 RU.

For the molecule RLIQKK [6mer-2-492], in experiment [1], the Binding affinity was 148 RU.

With KQIQRR [6mer-2-519], the Binding affinity in experiment [1] is 135 RU.

In the case of RQQQKK [6mer-2-516], the Binding affinity in experiment [1] came out at 146 RU.

KVIYKR [6mer-2-531] yielded a Binding affinity in experiment [1] of 148 RU.

Regarding KGVRRK [6mer-2-493], the Binding affinity in experiment [1] is 123 RU.

On to KSFCKR [6mer-2-502], for which the Binding affinity in experiment [1] was determined as 144 RU.

In experiment [1], RGFYRK [6mer-2-509] yielded a Binding affinity of 136 RU.

KRQCKK [6mer-2-505]: the Binding affinity in experiment [1] amounted to 148 RU.

KRICKR [6mer-2-491] had a Binding affinity in experiment [1] of 135 RU.

RRFTKK [6mer-2-480] gave a Binding affinity in experiment [1] of 147 RU.

In experiment [1], KRICRR [6mer-2-500] returned a Binding affinity of 146 RU.

In experiment [1], KQQRKR [6mer-2-529] returned a Binding affinity of 124 RU.

The molecule RRSVCK [6mer-1-543] registered a Binding affinity (RU) in experiment [2] of 145 RU.

In experiment [1], RVLLRK [6mer-2-526] registered a Binding affinity of 144 RU.

On to KWVRKK [6mer-2-525], for which the Binding affinity in experiment [1] was 145 RU.

RSYSKR [6mer-2-530] displayed a Binding affinity in experiment [1] of 139 RU.

RVRYRK [6mer-2-496] yielded a Binding affinity in experiment [1] of 144 RU.

KGLCRR [6mer-2-498] returned a Binding affinity in experiment [1] of 127 RU.

The molecule RVISKK [6mer-2-489] had a Binding affinity in experiment [1] of 142 RU.

Consider RRSQCK [6mer-1-538], for which, in experiment [2], the Binding affinity (RU) was 142 RU.

Regarding KRGRLR [6mer-1-551], the Binding affinity (RU) in experiment [2] came to 142 RU.

With KSYTRR [6mer-2-497], the Binding affinity in experiment [1] came out at 148 RU.

With KSYSKK [6mer-2-501], the Binding affinity in experiment [1] was found to be 144 RU.

Turning to RVVLRK [6mer-2-522], the Binding affinity in experiment [1] came out at 124 RU.

In experiment [2], RRWFRK [6mer-1-536] gave a Binding affinity (RU) of 151 RU.

RRGLCK [6mer-1-537] displayed a Binding affinity (RU) in experiment [2] of 154 RU.

Regarding RWYTKR [6mer-2-484], the Binding affinity in experiment [1] was determined as 148 RU.
